The source of these data is US20030091565A1 (Human Genome Sciences, published 2003).

The target in experiment [1] is T1, B lymphocyte stimulator protein (BLyS), recombinant (human, UniProt Q9Y275 134-285, limits assumed, biotinylated in the phage screening and phage ELISA; unlabeled in fluorescence anisotropy).
T1 construct: also called biotinylated BLyS; b-BLyS
The experiment is described as follows: not stated there (fluorescence anisotropy elsewhere).

For experiment [2], the target named is T1, B lymphocyte stimulator protein (BLyS), …. The experiment is described as follows: fluorescence anisotropy.
Protocol: Dissociation constants between the synthetic peptides and BLyS (free in solution) were measured by fluorescence anisotropy (FA). In these experiments, the concentration of the fluorescein-labeled peptide is held constant and the BLyS protein concentration was varied. The observed change in anisotropy is fit to the following equation via nonlinear regression to obtain the apparent KD.
Binding reactions containing 50 nM fluorescein-labeled peptide and a varied concentration of BLyS in a volume between 10 and 20 μL per well were performed in 384 well microplates. Reactions were assayed using a Tecan Polarion fluorescence polarization plate reader. Cross-competition studies between peptides were performed using 50 nM fluorescein-labeled peptide and 1-2 μM BLyS in the presence and absence of 100 μM unlabeled peptide. […] Other buffers in which dissociation constants of BLyS Binding polypeptides were detremined include: [pH 6.0, 0.01% Tween], [pH 6.0, 0.1% gelatin], [pH5.0, 0.01% Tween], [pH9.0, 0.1% Tween], [pH6.0, 15% ethylene glycol, 0.01 % Tween], ], [pH5.0, 15% ethylene glycol, 0.01 % Tween], and [pH9.0, 15% ethylene glycol, 0.01 % Tween].
The target is the same in experiment [3]. The experiment is described as follows: not stated there.

No end group written: not given here.

T1 sequence (Q9Y275 134-285 limits assumed): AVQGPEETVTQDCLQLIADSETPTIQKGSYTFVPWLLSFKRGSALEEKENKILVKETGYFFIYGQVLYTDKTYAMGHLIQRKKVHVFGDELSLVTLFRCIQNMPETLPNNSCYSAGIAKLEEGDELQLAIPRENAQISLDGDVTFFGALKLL

Ac-WTDSLTGLWFPDGGPGPEGGGK [DX221]: the Kd in experiment [1] amounted to 3 µM.

B1: DX876 (peptide)
peptide: Ac-WYDPLTKLWLGGK(fitc)
notes: 10-mer core (positions 3-12 of the 14-mer) with GGK linker
Turning to B1, in experiment [2], the Kd amounted to 0.171 µM.

For the molecule VPFCDLLTKHCFEA (on M13 phage; also called TN8-01-B07) [453-01-B07], the dissociation constant (Kd) in experiment [3] is 0.7 µM.

In general, Kd refers to the free concentration of one partner at which half of the binding sites on the other are occupied at equilibrium, for simple one-to-one binding.
